Target: recombinant Tau (Panvera)

B1: full length human transglutaminase II (protein)
chain: MAEELVLERCDLELETNGRDHHTADLCREKLVVRRGQPFWLTLHFEGRNYEASVDSLTFSVVTGPAPSQEAGTKARFPLRDAVEEGDWTATVVDQQDCTLSLQLTTPANAPIGLYRLSLEASTGYQGSSFVLGHFILLFNAWCPADAVYLDSEEERQEYVLTQQGFIYQGSAKFIKNIPWNFGQFEDGILDICLILLDVNPKFLKNAGRDCSRRSSPVYVGRVVSGMVNCNDDQGVLLGRWDNNYGDGVSPMSWIGSVDILRRWKNHGCQRVKYGQCWVFAAVACTVLRCLGIPTRVVTNYNSAHDQNSNLLIEYFRNEFGEIQGDKSEMIWNFHCWVESWMTRPDLQPGYEGWQALDPTPQEKSEGTYCCGPVPVRAIKEGDLSTKYDAPFVFAEVNADVVDWIQQDDGSVHKSINRSLIVGLKISTKSVGRDEREDITHTYKYPEGSSEEREAFTRANHLNKLAEKEETGMAMRIRVGQSMNMGSDFDVFAHITNNTAEEYVCRLLLCARTVSYNGILGPECGTKYLLNLNLEPFSEKSVPLCILYEKYRDCLTESNLIKVRALLVEPVINSYLLAERDLYLENPEIKIRILGEPKQKRKLVAEVSLQNPLPVALEGCTFTVEGAGLTEEQKTVEIPDPVEAGEEVKVRMDLLPLHMGLHKLVVNFESDKLKAVKGFRNVIIGPA
tau aggregation (high molecular weight total tau immunoreactive protein complex on western blot) in the transglutaminase activity assay: increased, Ca2+-dependent tau aggregation when recombinant tau was added to brain lysate from mice with overexpression of hTGII

Source: patent publication US20060015959
